Tested on: Escherichia coli TOP10
Assay: shrunken log2 fold change of peptide-encoding DNA abundance (4.5 h post-induction vs induction); higher = less antimicrobial activity (less host growth inhibition)
Conditions: time post-induction: 4.5 h; library: site-saturation at positions 5, 18, 19, 20
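Also: peptides expressed intracellularly from a pBAD plasmid library in pooled LB shake-flask culture, induced with 0.3% L-arabinose, DNA abundance read by NGS, three biological replicates, DESeq2 with apeglm shrinkage.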

Sequence | shrunken log2 fold change
RRIRCRPPRLPRPRPRPYGTPRP | 0.016
RRIRCRPPRLPRPRPRPYHVPRP | -0.0591
RRIRCRPPRLPRPRPRPYHYPRP | -0.364
RRIRCRPPRLPRPRPRPYIIPRP | -0.985
RRIRCRPPRLPRPRPRPYKFPRP | -0.279
RRIRCRPPRLPRPRPRPYKGPRP | -0.153
RRIRCRPPRLPRPRPRPYLSPRP | -0.577
RRIRCRPPRLPRPRPRPYLWPRP | -0.726
RRIRCRPPRLPRPRPRPYMLPRP | -1.06
RRIRCRPPRLPRPRPRPYNPPRP | -1.15
RRIRCRPPRLPRPRPRPYNSPRP | -0.325
RRIRCRPPRLPRPRPRPYPEPRP | -0.0664
RRIRCRPPRLPRPRPRPYQCPRP | -0.133
RRIRCRPPRLPRPRPRPYRYPRP | -0.262
RRIRCRPPRLPRPRPRPYTAPRP | -0.595
RRIRCRPPRLPRPRPRPYVQPRP | -0.113
RRIRDRPPRLPRPRPRPAADPRP | 0.701
RRIRDRPPRLPRPRPRPAAFPRP | 0.549
RRIRDRPPRLPRPRPRPAASPRP | 0.049
RRIRDRPPRLPRPRPRPAAYPRP | 0.174
RRIRDRPPRLPRPRPRPAEGPRP | 0.015
RRIRDRPPRLPRPRPRPAERPRP | -0.0412
RRIRDRPPRLPRPRPRPAEWPRP | 0.0244
RRIRDRPPRLPRPRPRPAGRPRP | 0.632
RRIRDRPPRLPRPRPRPAIRPRP | 0.53

Sequence | shrunken log2 fold change
RRIRDRPPRLPRPRPRPALDPRP | 1.05
RRIRDRPPRLPRPRPRPALNPRP | -0.0576
RRIRDRPPRLPRPRPRPALQPRP | 0.671
RRIRDRPPRLPRPRPRPALSPRP | 0.0869
RRIRDRPPRLPRPRPRPALWPRP | 1.05
RRIRDRPPRLPRPRPRPANKPRP | -0.261
RRIRDRPPRLPRPRPRPAPRPRP | 1.07
RRIRDRPPRLPRPRPRPAPVPRP | 0.49
RRIRDRPPRLPRPRPRPAQDPRP | 0.684
RRIRDRPPRLPRPRPRPAQRPRP | 0.152
RRIRDRPPRLPRPRPRPAQVPRP | -0.286
RRIRDRPPRLPRPRPRPARQPRP | 0.212
RRIRDRPPRLPRPRPRPARWPRP | 0.824
RRIRDRPPRLPRPRPRPATIPRP | 0.0807
RRIRDRPPRLPRPRPRPATNPRP | 0.0922
RRIRDRPPRLPRPRPRPATSPRP | 0.303
RRIRDRPPRLPRPRPRPAVDPRP | -0.0491
RRIRDRPPRLPRPRPRPAVEPRP | 0.845
RRIRDRPPRLPRPRPRPAVGPRP | 0.148
RRIRDRPPRLPRPRPRPAYFPRP | 0.128
RRIRDRPPRLPRPRPRPAYQPRP | -0.381
RRIRDRPPRLPRPRPRPCAHPRP | 0.07
RRIRDRPPRLPRPRPRPCCYPRP | 0.503
RRIRDRPPRLPRPRPRPCFGPRP | -0.112
RRIRDRPPRLPRPRPRPCFQPRP | -0.0196

Sequence | shrunken log2 fold change
RRIRDRPPRLPRPRPRPCFYPRP | -0.167
RRIRDRPPRLPRPRPRPCGYPRP | 0.0572
RRIRDRPPRLPRPRPRPCIEPRP | -0.158
RRIRDRPPRLPRPRPRPCIMPRP | 0.0282
RRIRDRPPRLPRPRPRPCKFPRP | 0.0155
RRIRDRPPRLPRPRPRPCKQPRP | -0.00787
RRIRDRPPRLPRPRPRPCLWPRP | 0.218
RRIRDRPPRLPRPRPRPCMYPRP | 0.126
RRIRDRPPRLPRPRPRPCQFPRP | 0.0215
RRIRDRPPRLPRPRPRPCQVPRP | -0.0566
RRIRDRPPRLPRPRPRPCRTPRP | -0.173
RRIRDRPPRLPRPRPRPCSGPRP | -0.0282
RRIRDRPPRLPRPRPRPCSVPRP | -0.0368
RRIRDRPPRLPRPRPRPCSWPRP | 0.654
RRIRDRPPRLPRPRPRPCTIPRP | -0.23
RRIRDRPPRLPRPRPRPCTSPRP | -0.000687
RRIRDRPPRLPRPRPRPDCSPRP | 0.573
RRIRDRPPRLPRPRPRPDCTPRP | 0.185
RRIRDRPPRLPRPRPRPDCYPRP | 0.269
RRIRDRPPRLPRPRPRPDDTPRP | 0.336
RRIRDRPPRLPRPRPRPDGAPRP | 0.657
RRIRDRPPRLPRPRPRPDHEPRP | -0.148
RRIRDRPPRLPRPRPRPDHVPRP | -0.012
RRIRDRPPRLPRPRPRPDIIPRP | 0.221
RRIRDRPPRLPRPRPRPDKHPRP | -0.0761

Sequence | shrunken log2 fold change
RRIRDRPPRLPRPRPRPDLKPRP | 0.169
RRIRDRPPRLPRPRPRPDMRPRP | 0.0382
RRIRDRPPRLPRPRPRPDNEPRP | -0.0213
RRIRDRPPRLPRPRPRPDPFPRP | -0.00228
RRIRDRPPRLPRPRPRPDPSPRP | -0.0385
RRIRDRPPRLPRPRPRPDPYPRP | 0.00859
RRIRDRPPRLPRPRPRPDRTPRP | 0.0519
RRIRDRPPRLPRPRPRPDSAPRP | -0.0433
RRIRDRPPRLPRPRPRPDTVPRP | -0.0743
RRIRDRPPRLPRPRPRPDVLPRP | 0.0169
RRIRDRPPRLPRPRPRPDWIPRP | 0.189
RRIRDRPPRLPRPRPRPDWMPRP | 0.0771
RRIRDRPPRLPRPRPRPDYKPRP | 0.00454
RRIRDRPPRLPRPRPRPDYQPRP | 0.0708
RRIRDRPPRLPRPRPRPEAHPRP | -0.00146
RRIRDRPPRLPRPRPRPEASPRP | 0.447
RRIRDRPPRLPRPRPRPEEWPRP | 0.0446
RRIRDRPPRLPRPRPRPEFCPRP | 1.14
RRIRDRPPRLPRPRPRPEGAPRP | 1.78
RRIRDRPPRLPRPRPRPEGTPRP | -0.042
RRIRDRPPRLPRPRPRPEHVPRP | 0.212
RRIRDRPPRLPRPRPRPEIDPRP | 0.0535
RRIRDRPPRLPRPRPRPEINPRP | 0.648
RRIRDRPPRLPRPRPRPEKYPRP | 0.0312
RRIRDRPPRLPRPRPRPELTPRP | 0.167

Sequence | shrunken log2 fold change
RRIRDRPPRLPRPRPRPEMIPRP | 0.0934
RRIRDRPPRLPRPRPRPEMNPRP | 0.128
RRIRDRPPRLPRPRPRPERLPRP | 0.659
RRIRDRPPRLPRPRPRPETEPRP | -0.0111
RRIRDRPPRLPRPRPRPETHPRP | 0.739
RRIRDRPPRLPRPRPRPEVNPRP | 0.0354
RRIRDRPPRLPRPRPRPEVRPRP | 1.91
RRIRDRPPRLPRPRPRPEVYPRP | -0.00999
RRIRDRPPRLPRPRPRPEWKPRP | -0.0135
RRIRDRPPRLPRPRPRPEYWPRP | 0.0559
RRIRDRPPRLPRPRPRPFATPRP | 0.271
RRIRDRPPRLPRPRPRPFDLPRP | -0.312
RRIRDRPPRLPRPRPRPFEKPRP | 0.00649
RRIRDRPPRLPRPRPRPFFCPRP | 0.55
RRIRDRPPRLPRPRPRPFFEPRP | 0.219
RRIRDRPPRLPRPRPRPFFGPRP | 1.19
RRIRDRPPRLPRPRPRPFFSPRP | 0.115
RRIRDRPPRLPRPRPRPFGEPRP | -0.0214
RRIRDRPPRLPRPRPRPFHYPRP | -0.00232
RRIRDRPPRLPRPRPRPFIFPRP | -0.0526
RRIRDRPPRLPRPRPRPFLLPRP | 0.0901
RRIRDRPPRLPRPRPRPFMFPRP | 0.033
RRIRDRPPRLPRPRPRPFMGPRP | -0.27
RRIRDRPPRLPRPRPRPFNTPRP | -0.686
RRIRDRPPRLPRPRPRPFPHPRP | -0.303

Sequence | shrunken log2 fold change
RRIRDRPPRLPRPRPRPFPTPRP | 0.0231
RRIRDRPPRLPRPRPRPFPVPRP | -0.0955
RRIRDRPPRLPRPRPRPFPYPRP | -0.136
RRIRDRPPRLPRPRPRPFQIPRP | 0.0155
RRIRDRPPRLPRPRPRPFQNPRP | 0.0838
RRIRDRPPRLPRPRPRPFWIPRP | -0.408
RRIRDRPPRLPRPRPRPFYVPRP | -0.0754
RRIRDRPPRLPRPRPRPGALPRP | 0.191
RRIRDRPPRLPRPRPRPGARPRP | 0.863
RRIRDRPPRLPRPRPRPGATPRP | 1.01
RRIRDRPPRLPRPRPRPGCMPRP | 0.206
RRIRDRPPRLPRPRPRPGFRPRP | 0.248
RRIRDRPPRLPRPRPRPGHYPRP | 0.0149
RRIRDRPPRLPRPRPRPGINPRP | 0.0194
RRIRDRPPRLPRPRPRPGLYPRP | 0.199
RRIRDRPPRLPRPRPRPGMAPRP | 0.22
RRIRDRPPRLPRPRPRPGMIPRP | 0.133
RRIRDRPPRLPRPRPRPGPEPRP | 0.544
RRIRDRPPRLPRPRPRPGPFPRP | 0.174
RRIRDRPPRLPRPRPRPGRGPRP | 0.725
RRIRDRPPRLPRPRPRPGRIPRP | -0.136
RRIRDRPPRLPRPRPRPGSIPRP | 0.0264
RRIRDRPPRLPRPRPRPGSKPRP | -0.126
RRIRDRPPRLPRPRPRPGSLPRP | -0.0141
RRIRDRPPRLPRPRPRPGSTPRP | 0.637
